The results in this text go back to the supplement of paper PMC12042874.

± gives the uncertainty stated by the source.

The nature of this series: amyloid nucleation score (Sup35N fusion, yeast selection) (log enrichment); library NNK1; higher = more nucleation; inactive = no reads after selection. In short, it runs like this:
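Peptides of 20 random codons fused to Sup35N were expressed in psi-negative yeast, induced 24 hours with 100 μM copper sulfate, then grown 7 days at 30°C on medium lacking adenine and uracil. Input and output plasmid inserts were Illumina-sequenced. Nucleation score is the DiMSum log enrichment of output over input reads, centred on the mode score of non-aggregating sequences, excluding sequences with under 100 input reads. Random libraries had three technical output replicates.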

Take FRVYVSCVLCNDCVVYHRFE: the amyloid nucleation score turned out to be 7.602 ± 0.072.

With WIVRPSGCGVTTR, the amyloid nucleation score is -0.414 ± 0.69. The substance SLWAYNPV came in with an amyloid nucleation score of 2.04 ± 0.38.

In turn, QWCDKVFL registered an amyloid nucleation score of -0.687 ± 0.4. In turn, HHSRIFICDLRWSSTVRHCK gave an amyloid nucleation score of 1.39 ± 0.16. Under ESFTPSRSTNVRI stands -1.24 ± 0.94; under IFTVTGNCTGGAHTQDVVWF, 0.381 ± 0.77. Take FRHPMTDDDTPWKAARFVE: the amyloid nucleation score is -1.6 ± 2.4.

Substance QISVKTMLLSLTFRMFIYWN showed an amyloid nucleation score of -0.168 ± 0.38. In turn, YSCGSIPYIRLVLKLIGYVI returned an amyloid nucleation score of -0.016 ± 0.39.

Take TLRWGNYKLLQIVYITVWRD: the amyloid nucleation score amounted to 0.541 ± 0.28. For KAAGMGSCSYTMVNYTPDAG, the amyloid nucleation score amounted to 1.39 ± 0.23.

Take LIEVWYVLIQGECDPWVTHG: the amyloid nucleation score amounted to 1.07 ± 0.97.

In turn, YARSSFEDIVVFRDRFG had an amyloid nucleation score of 5.47 ± 0.092. Turning to YNYICTDSWILSTMVDFVHL, the amyloid nucleation score was -0.442 ± 0.92. In the case of YASLNYLLQGRVRA, the amyloid nucleation score entry is “inactive”.

Substance CARNNHELVNYFKAFIPVVA registered an amyloid nucleation score of 0.751 ± 0.43. Under FFLRSPFL stands 0.016 ± 0.41; under YKDFVGRTEFYRVGMFRLTE, 0.912 ± 0.43. HPLWGPYR had an amyloid nucleation score of 0.518 ± 0.59.

For SNTSMHRLLLIIVGKNMNVV, the amyloid nucleation score came to 0.261 ± 1. With RGSIRIKDMTCGLEIGIALR, the amyloid nucleation score was -0.001 ± 0.44. VSLRCWCWGGTHVKPQRGYV gave an amyloid nucleation score of 0.377 ± 0.77. KLDCMVDDICGTSGTVFLCL displayed an amyloid nucleation score of 4.85 ± 0.061. GCILHFHSGRGYIGSRMVGW gave an amyloid nucleation score of 1.31 ± 0.32. Regarding TKTLL, the amyloid nucleation score came to 0.346 ± 0.34. SALIILMHVV returned an amyloid nucleation score of -0.761 ± 1.2.

As for VVLRSGINL, the amyloid nucleation score is -0.561 ± 0.29. As to ILSSGGEKDFNSLYT, the amyloid nucleation score was -0.105 ± 0.47. The substance RNFFDLCGTSKRRMRIS returned an amyloid nucleation score of -0.15 ± 0.47. Turning to IRLLAKI, the amyloid nucleation score result is “inactive”.

For HSGGVTIQLCSKACVYSGAG, the amyloid nucleation score came out at 0.754 ± 0.19. On to NFDYHTTTVGMELWSLGFSS, for which the amyloid nucleation score is -0.585 ± 0.51. Substance NRCCVPTKATN registered an amyloid nucleation score of 0.27 ± 0.53.

The substance KWRNLSS showed an amyloid nucleation score of 0.631 ± 0.89.

Turning to APEVNRLTCSYRSDRLKTS, the amyloid nucleation score amounted to 0.095 ± 0.83. Under DLGNLFLGISVKCI stands 0.961 ± 0.53; under YSLVDTTLVILS, 0.226 ± 0.36. Under WYRVR stands -0.421 ± 1.1; under GCLKTVGCA, -0.22 ± 0.64. FLIEMCYV: the amyloid nucleation score is -0.484 ± 0.88. GRAWCFY registered an amyloid nucleation score of 0.15 ± 0.33. For the substance HIGGTFVWLEFPCKWGLTED, the amyloid nucleation score amounted to 4.46 ± 0.069. Take DRRFRIITHLANSLIWNKWQ: the amyloid nucleation score worked out at 0.076 ± 0.49. In turn, WTCLKQEPLAWRWL yielded an amyloid nucleation score of -0.093 ± 0.94.

As to HSPLTRNVRSCVK, the amyloid nucleation score came to 0.718 ± 0.36. As to IVCSGLCHIN, the amyloid nucleation score is 7.08 ± 0.071.

CFSRHAICT came in with an amyloid nucleation score of -0.863 ± 0.88. Under VYRNAINSVIHFDGVVWGVG stands “inactive”. For the substance MIGTYRWMLIMGLETVRKGG, the amyloid nucleation score result is “inactive”. The substance SRCHQRTYEVIAEYDLSKTE registered an amyloid nucleation score of 0.223 ± 0.52. Under SNTDYCVSVPVLTVAFSVWA stands -0.343 ± 0.51; under RSVCIVF, 0.105 ± 0.43; under DCFARVLLTMRYLKGVVYTE, 1.13 ± 0.27. WVLYSIILCERCNHKGTSDG registered an amyloid nucleation score of 0.057 ± 0.53. Regarding WLVTDFVCHLITNTIYTLLL, the amyloid nucleation score entry is “inactive”. In the case of RLYYLGMSGYLRHNPASCVL, the amyloid nucleation score is -1.56 ± 2.7. Under GMSSRMPQLNSWEPRGGDSG stands -0.144 ± 0.83; under LDSCPAL, 0.47 ± 0.57.

HGCSSVILVGMRAEEIFLYY returned an amyloid nucleation score of 2.71 ± 0.14. In the case of GQGALRVDCLVHRQVVSVVL, the amyloid nucleation score turned out to be 0.176 ± 0.62. With EEPLLSDMCITVGVRFLNKS, the amyloid nucleation score was found to be 3.36 ± 0.22.

Consider FMTEWSVTFMRMYMAYLGSV, for which the amyloid nucleation score stood at 0.424 ± 0.29. As for PVFGETGDY, the amyloid nucleation score is -0.393 ± 0.4.

In the case of GISNSMVRHYLCTTFIYKDA, the amyloid nucleation score is 3.51 ± 0.066.

As for SLQFLSKPHLLRESVSESVD, the amyloid nucleation score was 0.381 ± 0.35.

Take GQKYHINVRERLNNLFGDCV: the amyloid nucleation score came to 0.537 ± 0.35. Under DGYFQFKFYCTEMGMLFCFF stands -1.24 ± 0.56; under ITYSLSIYSSRAICLYVWGG, -0.119 ± 0.62; under HVHVTACCRLM, 7.44 ± 0.077. DKWRVRCCRFWLT: the amyloid nucleation score was 0.191 ± 0.29.

For LVNVCFRWNLKCYYQSSEYA, the amyloid nucleation score is 0.518 ± 0.32. Consider ACRDVGHSVVLCKFKS, for which the amyloid nucleation score is -1.01 ± 1.4.

With KGAGMQTTQCVCKVYKLSWA, the amyloid nucleation score is 0.281 ± 0.24.

In the case of DGELMAYLSDGNQG, the amyloid nucleation score entry is “inactive”.

ITVYLMALVNNVCG yielded an amyloid nucleation score of 3.38 ± 0.13. Regarding FTGRNSNMIFLSYWVCYYQN, the amyloid nucleation score was 6.983 ± 0.05. Under VDQVQDNLKFEIGKYSYWYS stands 0.128 ± 0.27; under NNIVLDFLFGVSLHRFGPHH, 4.43 ± 0.14; under LRGFESTRETVLGSMQQWCL, 1.03 ± 0.56.

The substance CAVVVGVSGGAHEGVGKTKY displayed an amyloid nucleation score of -0.35 ± 0.45. TWRFVFCFFWTRGPRLLICA showed an amyloid nucleation score of -0.768 ± 0.37. Turning to DSYDLY, the amyloid nucleation score entry is “inactive”. Next, IDNGDCYNDRVLADTVS: -0.577 ± 0.6; VPILIVFQQVADASRIRIMR: 4.77 ± 0.059. For the substance VWLWDLA, the amyloid nucleation score was found to be 1.25 ± 0.62. VVSYTVQGGRSSHMANWG: the amyloid nucleation score is 0.35 ± 0.92. As to STCSPKELQFMSYVCWVKFC, the amyloid nucleation score amounted to 3.32 ± 0.11. NCTWITGIFS came in with an amyloid nucleation score of 0.044 ± 0.35. For GTDYVEGCCSLNFRCCCVNG, the amyloid nucleation score came to 5.117 ± 0.05. Take KDARLHFSWRL: the amyloid nucleation score turned out to be 0.933 ± 0.6.

Consider YGNIGV, for which the amyloid nucleation score turned out to be 0.231 ± 0.81.

With RCEVESIRNGLAKAGSVTMR, the amyloid nucleation score amounted to 0.515 ± 0.38. Next, NNSYFMCNTLRRVLMGLLLG: 1.11 ± 0.65. Consider GAFNQSMDSCGFMFPHNMRP, for which the amyloid nucleation score is 0.724 ± 1. In the case of FYVRCREMSRGVWWSTSVR, the amyloid nucleation score was -0.188 ± 0.34. Turning to ASFGGINLPL, the amyloid nucleation score was -0.236 ± 0.41. With KDLLMKV, the amyloid nucleation score was 0.507 ± 0.64. Take NHIQRVSTFVLAMSYYVRTV: the amyloid nucleation score is -0.236 ± 1.2. With IDGCLPTNRVGSSRSVRGNV, the amyloid nucleation score entry was “inactive”. With ICLMFLSGTIDYYLY, the amyloid nucleation score was determined as 0.111 ± 0.84. Consider FWPGFSWSIKLQLTFG, for which the amyloid nucleation score is -0.326 ± 0.3.

For FKTDRGTRHFDFYYCV, the amyloid nucleation score is 0.395 ± 0.21.

Regarding AVMFVTCLIVSASGHLLYTL, the amyloid nucleation score was determined as 1.39 ± 0.88. SYGNVWYIMYHRLKDTGWYM yielded an amyloid nucleation score of 1.4 ± 0.43. In the case of SPAFPP, the amyloid nucleation score came out at 0.798 ± 0.79.

In turn, GRVLYKSCALNNFSIMQVLC yielded an amyloid nucleation score of 4.61 ± 0.1. Next, IVTSMSYNFLLKLMAGPQLR: 0.274 ± 0.67; GSFFTKDSDTP: 0.373 ± 0.46; YDNWVVGNYGLSAERICRVE: 0.085 ± 0.77. In the case of LWNIMVLDIWDRDLCSCIWG, the amyloid nucleation score is 0.756 ± 0.56. For the substance ISCWRNYLDLSSLYLFALFI, the amyloid nucleation score amounted to 2.53 ± 0.077. The substance HCLAGNLDLAMVRVRSPTCL registered an amyloid nucleation score of 0.032 ± 0.59. DTVYLLGGCCLVVRLNLFIG had an amyloid nucleation score of 3.77 ± 0.15. Take RSHGNGSGSRTVAF: the amyloid nucleation score was -0.1 ± 0.49.

Substance YPLVFRIMDVVSPPPHWVLF came in with an amyloid nucleation score of -0.219 ± 1.2. Consider SLSMFLLTILTCYDGFIDIW, for which the amyloid nucleation score is -0.372 ± 0.25.

In turn, SPGAWKHSNPDGDCNGLA displayed an amyloid nucleation score of 0.525 ± 0.49. Next, YRHPVMTWEPSRDLSFVLCL: 0.388 ± 0.84; YYQRTPSTDRSLWFTGWNVN: -0.424 ± 0.19. With DVVICRYSAVIRVFLTLKFK, the amyloid nucleation score is -0.202 ± 0.49.

In turn, SWGQTLTMNNP registered an amyloid nucleation score of -0.273 ± 0.38. As to ILMFISVFYCFCRKTRYLNR, the amyloid nucleation score was found to be 1.01 ± 0.31. As to YIGFVGSGYLVVCVP, the amyloid nucleation score was -2.02 ± 0.99. The substance TWNVMYRIRF gave an amyloid nucleation score of 2.04 ± 0.23.

Take WSISGELFTVVSDWPFCPIG: the amyloid nucleation score result is “inactive”. On to FGPNVSFR, for which the amyloid nucleation score is -0.638 ± 0.54.

SFRIVLLPPF returned an amyloid nucleation score of 2.64 ± 0.26. On to ISRISVSEEFKGCMGREWVT, for which the amyloid nucleation score came to 1.1 ± 0.52. DDRVSQLAWGLCAVSYARLE yielded an amyloid nucleation score of 0.681 ± 0.54.

Substance LCLRLCPLMVWSCVLERWVS registered an amyloid nucleation score of -1.78 ± 2.7. QEYRDMILKPFHRWFTMFK came in with an amyloid nucleation score of 0.941 ± 0.44. The substance MQLHNGWMLITYKKGTSIIW returned an amyloid nucleation score of -2.3 ± 1.8. GFYSLHTALARIPHEHAVFF yielded an amyloid nucleation score of -0.018 ± 0.61. With VHSCFHFSNKGRLVWFPSFH, the amyloid nucleation score entry was “inactive”. As to HIFVMIYVLMEDGSKKLTSM, the amyloid nucleation score was found to be 0.99 ± 0.85. For the substance GWTLPNRRLWHFFMTIT, the amyloid nucleation score was 0.654 ± 0.45.

As to NVSFWFYPLSAFSRPFFGLH, the amyloid nucleation score was 2.74 ± 0.28. Next, NPNTKYINCPHRVAFRGKLM: 0.552 ± 0.74; TRLLRVGRSNFSLNEHSDRI: -0.376 ± 0.9.
